Assay results as given in article PMC3749867, “Evolutionarily conserved structural changes in phosphatidylinositol 5-phosphate 4-kinase (PI5P4K) isoforms are responsible for differences in enzyme activity and localization” (Biochemical Journal, 2013).

How the values were obtained:
Details in all cases: PtdIns5P co-substrate, 10 mM MgCl2, pH 7.4, 30 °C, ATP 0–150 μM
[1] = substrate: Nc1ncnc2c1ncn2[C@@H]1O[C@H](COP(=O)(O)OP(=O)(O)OP(=O)(O)O)[C@@H](O)[C@H]1O; test: radiometric lipid kinase assay, TLC; assay type: biochemical, Homo sapiens
[2] = substrate: Nc1ncnc2c1ncn2[C@@H]1O[C@H](COP(=O)(O)OP(=O)(O)OP(=O)(O)O)[C@@H](O)[C@H]1O; test: radiometric lipid kinase assay, TLC; assay type: biochemical, Homo sapiens; remark: listed apart in the source
Text: radiometric lipid kinase assay, TLC on PI5P4Kβ

purified protein = substrate: Nc1ncnc2c1ncn2[C@@H]1O[C@H](COP(=O)(O)OP(=O)(O)OP(=O)(O)O)[C@@H](O)[C@H]1O; test: purified protein

B1: PI5P4Kα (Homo sapiens) (protein)
chain: MATPGNLGSSVLASKTKTKKKHFVAQKVKLFRASDPLLSVLMWGVNHSINELSHVQIPVMLMPDDFKAYSKIKVDNHLFNKENMPSHFKFKEYCPMVFRNLRERFGIDDQDFQNSLTRSAPLPNDSQARSGARFHTSYDKRYIIKTITSEDVAEMHNILKKYHQYIVECHGITLLPQFLGMYRLNVDGVEIYVIVTRNVFSHRLSVYRKYDLKGSTVAREASDKEKAKELPTLKDNDFINEGQKIYIDDNNKKVFLEKLKKDVEFLAQLKLMDYSLLVGIHDVERAEQEEVECEENDGEEEGESDGTHPVGTPPDSPGNTLNSSPPLAPGEFDPNIDVYGIKCHENSPRKEVYFMAIIDILTHYDAKKKAAHAAKTVKHGAGAEISTVNPEQYSKRFLDFIGHILT
notes: full-length cDNA in pGEX6P, E. coli BL21(DE3), GST fusion or GST cleaved by PreScission; His6-tagged version used as standard for kcat conversion; homodimer
- Km [1]: 3.94 µM
- kcat [1]: 0.0105 s⁻¹

B2: PI5P4Kβ (Homo sapiens) (protein)
chain: MSSNCTSTTAVAVAPLSASKTKTKKKHFVCQKVKLFRASEPILSVLMWGVNHTINELSNVPVPVMLMPDDFKAYSKIKVDNHLFNKENLPSRFKFKEYCPMVFRNLRERFGIDDQDYQNSVTRSAPINSDSQGRCGTRFLTTYDRRFVIKTVSSEDVAEMHNILKKYHQFIVECHGNTLLPQFLGMYRLTVDGVETYMVVTRNVFSHRLTVHRKYDLKGSTVAREASDKEKAKDLPTFKDNDFLNEGQKLHVGEESKKNFLEKLKRDVEFLAQLKIMDYSLLVGIHDVDRAEQEEMEVEERAEDEECENDGVGGNLLCSYGTPPDSPGNLLSFPRFFGPGEFDPSVDVYAMKSHESSPKKEVYFMAIIDILTPYDTKKKAAHAAKTVKHGAGAEISTVNPEQYSKRFNEFMSNILT
notes: full-length cDNA in pGEX6P, E. coli BL21(DE3), GST fusion or GST cleaved by PreScission; mutant PI5P4Kβ+ His-tagged; homodimer
- Km [2]: 67.05 µM
- kcat [2]: 9.55e-05 s⁻¹

B3: PI5P4Kγ (Homo sapiens) (protein)
chain: ASSSVPPATVSAATAGPGPGFGFASKTKKKHFVQQKVKVFRAADPLVGVFLWGVAHSINELSQVPPPVMLLPDDFKASSKIKVNNHLFHRENLPSHFKFKEYCPQVFRNLRDRFGIDDQDYLVSLTRNPPSESEGSDGRFLISYDRTLVIKEVSSEDIADMHSNLSNYHQYIVKCHGNTLLPQFLGMYRVSVDNEDSYMLVMRNMFSHRLPVHRKYDLKGSLVSREASDKEKVKELPTLKDMDFLNKNQKVYIGEEEKKIFLEKLKRDVEFLVQLKIMDYSLLLGIHDIIRGSEPEEEAPVREDESEVDGDCSLTGPPALVGSYGTSPEGIGGYIHSHRPLGPGEFESFIDVYAIRSAEGAPQKEVYFMGLIDILTQYDAKKKAAHAAKTVKHGAGAEISTVHPEQYAKRFLDFITNIFA
- Km (purified protein): 94.18 µM
- kcat (purified protein): 5.72e-06 s⁻¹
